Here are results for 9 molecules from patent US20240294635A1 (CHIA TAI TIANQING PHARMACEUTICAL GROUP, published 2024).

One test deals with CD47 on HL60 cells (UniProt Q08722 19-323, limits assumed). Description: cell-based or functional assay.
Test [1] deals with T1, human CD47 protein, His Tag (ACRObiosystems, Cat. No. CD7-H5227) (human, UniProt Q08722 19-139).
T1 construct: bought reagent; also called CD47-His; hCD47-His Tag; not shown: His tag
Briefly: ELISA, plate coated with CD47-His. In general terms: An ELISA detects its analyte on a solid surface through an enzyme-linked reagent.

In test [2] the target is T1, human CD47 protein, His Tag …. Briefly: Biacore SPR, 25 C, antibody captured on CM5 chip.
Test [3] deals with T2, cynomolgus/rhesus macaque CD47 protein, His Tag (ACRObiosystems, Cat. No. CD7-C52H1) (cynomolgus monkey (cynomolgus/rhesus …, UniProt A0A2K5X523 19-141)).
T2 construct: bought reagent; also called Cynomolgus monkey CD47 protein
T2 sequence (A0A2K5X523 entry or part of it limits assumed): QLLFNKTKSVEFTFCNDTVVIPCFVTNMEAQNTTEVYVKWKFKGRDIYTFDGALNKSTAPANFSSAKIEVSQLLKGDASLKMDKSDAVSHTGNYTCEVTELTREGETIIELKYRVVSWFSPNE
Briefly: Biacore SPR, 25 C, antibody captured on CM5 chip.

For test [4], the target named is T3, CD47 on the red cell surface (Homo sapiens (Human), UniProt Q08722 19-323). Briefly: flow cytometry on fixed red cells, antibody 1 µg/mL.
Method: (§1) Anticoagulated blood was collected and well mixed with an equal amount of normal saline. The mixture was centrifuged at 2000 rpm/min for 5 min, and the supernatant was removed. […] In the first two washings, the mixture was centrifuged at 2000 rpm/min for 5 min, and in the last washing, the mixture was centrifuged at 2000 rpm/min for 10 min, and the supernatant was removed.
The target of test [5] is T3, CD47 on the red cell surface. Description: flow cytometry on fixed red cells, antibody 10 µg/mL. On the technique in general: In flow cytometry, cells or beads pass a laser one at a time.
Method: as §1
Test [6] addresses T4, human CD47 protein on CHO-K1-CD47 cells (human, UniProt Q08722 19-323).
T4 construct: whole, on cells; also called CHO-K1 cells expressing human CD47 protein
Briefly: cell binding, CHO-K1-CD47 cells, high content imaging.
Method: A cell binding assay of anti-CD47 antibodies (chimeric or humanized) was performed based on the binding to a CHO-K1 cell line stably expressing CD47. CHO-K1-CD47 cells (CHO-K1 cells expressing human CD47 protein) were added to each well of a 96-well plate (Eppendorf, Cat. No. C030730.119) at 1.2×10⁴ cells per well and incubated with anti-CD47 antibodies (20 μg/mL, 1:4 dilution in PBS) at room temperature for 1-2 h. […] The cells were incubated at room temperature for 30 min. The cells were washed three times with PBS buffer. A nuclear dye Hoechst (Sigma, Cat. No. B2261) was diluted with PBS buffer at a dilution ratio of 1:500 and then added to each well at 100 μL/well for staining for 10 min. The cells were washed 3 times with PBS and analyzed using a high content screening system (manufacturer: PerkinElmer; model: Operetta).

Test [7] concerns the target T1, human CD47 protein, His Tag …. Briefly: ELISA, CD47-His coated, competition with Human-SIRPα-mFc.
Method: The plate was let stand at 2-8° C. overnight. The wells were aspirated to remove the coating buffer and blocked with 100 μL/well of a blocking solution (PBS with 1% (w/v) bovine serum albumin (BSA, Sigma, Cat. No. B2064-100G)) by incubation at 37° C. for 1 h. The 96-well plate was washed with a washing buffer (PBS with 0.01% (w/v) Tween 20 (Sigma, Cat. No. P9416-100ML)). […] After the 96-well plate was washed with PBS washing buffer, anti-CD47 chimeric antibodies or anti-CD47 humanized antibodies (see Table 8 for chimeric antibodies, and see Table 9 for humanized antibodies) were added. 4-fold dilution was performed with PBS buffer from a starting concentration of 20 μg/mL, with 8 gradients obtained. The plate was incubated at room temperature for 1.5 h. […] After the 96-well plate was washed with PBS buffer, 100 μL/well of a substrate solution TMB (TIANGEN, Cat. No. PA107-01) was added, and the plate was incubated at room temperature for color development for 10 min. 100 μL/well of 1 M H₂SO₄ was added to stop the reaction. Colorimetric signals were generated and read at 450 nm using a multifunctional microplate reader (manufacturer: PerkinElmer; model: EnVision). Data were analyzed using GraphPad Prism5, and EC₅₀ was calculated.

B1: hz3F10-1.1 (antibody, human IgG4 S228P, kappa, V domains shown)
VH: QVQLVQSGAEVKKPGSSVKVSCKASGYTFSRYWIEWVRQAPGQGLEWMGEFIPGSDTTNYAQKFQGRVTITADISTSTAYMELSSLRSEDTAVYYCARGGLRRMDYWGQGTLVTVSS
VL: DIQMTQSPSSLSASVGDRVTITCRASSSVSSTYLHWYQQKPGKAPKLLIYTTSTLASGVPSRFSGSGSGTDFTLTISSLQPEDFATYYCQQFSDSTWTFGQGTKLEIKR
notes: humanized 3F10, full-length heavy and light chains
The EC50 is the concentration needed to bring the measured effect to its halfway point. One may read the Kd as a measure of binding affinity in units of concentration. For orientation: IC50 means the point on the concentration scale where inhibition reaches its midpoint. As to B1, in the test with CD47 on HL60 cells, the “rate of phagocytosis, antibody 1 µg/mL” value came out at 41.2%. The “rate of phagocytosis, antibody 10 µg/mL” value in the test with CD47 on HL60 cells amounted to 43.1%. Further, the EC50 in test [1] worked out at 0.07 µg/mL; in test [6] it was 0.876 µg/mL. The Kd worked out at 0.946 nM in test [2] and 1.31 nM in test [3]. Moreover, the MFI in test [4] stood at 4450 MFI; in test [5] it was 50500 MFI. For the same molecule, the IC50 in test [7] stood at 1.53 µg/mL.

B2: hz3F10-5.1 (antibody, human IgG4 S228P, kappa, V domains shown)
VH: QVQLVQSGAEVKKPGSSVKVSCKASGYTFSRYWIEWVRQAPGQGLEWMGEFIPGSDTTNYAQKFQGRVTITADISTSTAYMELSSLRSEDTAVYYCARGGLRRMDYWGQGTLVTVSS
VL: DIQMTQSPSSLSASVGDRVTITCRASSSVSSTYLHWYQQKPGKAPKLWIYTTSTLASGVPSRFSGSGSGTSYTLTISSLQPEDFATYYCQQFSDSTWTFGQGTKLEIKR
notes: as for B1
With B2, the “rate of phagocytosis, antibody 1 µg/mL” value in the test with CD47 on HL60 cells was found to be 50.5%. In the test with CD47 on HL60 cells, the “rate of phagocytosis, antibody 10 µg/mL” value came out at 58.5%. In addition, the EC50 in test [1] worked out at 0.0993 µg/mL; in test [6], 1.48 µg/mL. Also, the figures for the Kd in test [2] and in test [3] were 0.96 nM and 1.3 nM, respectively. The MFI was found to be 7400 MFI in test [4] and 50600 MFI in test [5]. For the same molecule, the IC50 in test [7] is 1.7 µg/mL.

B3: hz3F10-6.2 (antibody, human IgG4 S228P, kappa, V domains shown)
VH: QVQLVQSGAEVKKPGSSVKVSCKASGYTFSRYWIEWVRQAPGQGLEWMGEFIPGSDTTNYAQKFQGRVTITAEISTNTAYMELSSLRSEDTAVYYCARGGLRRMDYWGQGTLVTVSS
VL: DIQMTQSPSSLSASVGDRVTITCRASSSVSSTYLHWYQQKPGKAPKLWIYTTSTLASGVPSRFSGSGSGTSYTLTISSLQPEDFATYYCQQFSESTWTFGQGTKLEIKR
notes: as for B1
Consider B3, for which, in the test with CD47 on HL60 cells, the “rate of phagocytosis, antibody 1 µg/mL” value amounted to 49.3%. In addition, the “rate of phagocytosis, antibody 10 µg/mL” value with CD47 on HL60 cells was found to be 44.2%. Further, the figures for the EC50 in test [1] and in test [6] were 0.129 µg/mL and 1.49 µg/mL, respectively. For the same molecule, the values for the equilibrium dissociation constant (Kd) in test [2] and in test [3] were 0.765 nM and 1.15 nM, respectively. The MFI came out at 3440 MFI in test [4] and 55900 MFI in test [5]. In addition, the IC50 in test [7] turned out to be 1.84 µg/mL.

B4: hz3F10-1.2 (antibody, human IgG4 S228P, kappa, V domains shown)
VH: QVQLVQSGAEVKKPGSSVKVSCKASGYTFSRYWIEWVRQAPGQGLEWMGEFIPGSDTTNYAQKFQGRVTITAEISTNTAYMELSSLRSEDTAVYYCARGGLRRMDYWGQGTLVTVSS
VL: DIQMTQSPSSLSASVGDRVTITCRASSSVSSTYLHWYQQKPGKAPKLLIYTTSTLASGVPSRFSGSGSGTDFTLTISSLQPEDFATYYCQQFSDSTWTFGQGTKLEIKR
notes: as for B1
For B4, in the test with CD47 on HL60 cells, the “rate of phagocytosis, antibody 1 µg/mL” value came to 55.5%. The “rate of phagocytosis, antibody 10 µg/mL” value in the test with CD47 on HL60 cells was 38.9%. Besides, the values for the EC50 in test [1] and in test [6] were 0.125 µg/mL and 1.27 µg/mL, respectively. Further, the values for the Kd in test [2] and in test [3] were 0.904 nM and 1.33 nM, respectively. For the same molecule, the MFI worked out at 6250 MFI in test [4] and 56700 MFI in test [5]. This molecule gave an IC50 in test [7] of 1.69 µg/mL.

B5: hz3F10-5.2 (antibody, human IgG4 S228P, kappa, V domains shown)
VH: QVQLVQSGAEVKKPGSSVKVSCKASGYTFSRYWIEWVRQAPGQGLEWMGEFIPGSDTTNYAQKFQGRVTITAEISTNTAYMELSSLRSEDTAVYYCARGGLRRMDYWGQGTLVTVSS
VL: DIQMTQSPSSLSASVGDRVTITCRASSSVSSTYLHWYQQKPGKAPKLWIYTTSTLASGVPSRFSGSGSGTSYTLTISSLQPEDFATYYCQQFSDSTWTFGQGTKLEIKR
notes: as for B1
With B5, the “rate of phagocytosis, antibody 1 µg/mL” value in the test with CD47 on HL60 cells was found to be 47.1%. The “rate of phagocytosis, antibody 10 µg/mL” value with CD47 on HL60 cells is 29.6%. In addition, the EC50 in test [1] came to 0.106 µg/mL; in test [6] it was 1.26 µg/mL. The figures for the Kd in test [2] and in test [3] were 0.896 nM and 1.4 nM, respectively. Besides, the figures for the MFI in test [4] and in test [5] were 5130 MFI and 53300 MFI, respectively. This molecule also returned an IC50 in test [7] of 1.82 µg/mL.

B6: hz3F10-6.1 (antibody, human IgG4 S228P, kappa, V domains shown)
VH: QVQLVQSGAEVKKPGSSVKVSCKASGYTFSRYWIEWVRQAPGQGLEWMGEFIPGSDTTNYAQKFQGRVTITADISTSTAYMELSSLRSEDTAVYYCARGGLRRMDYWGQGTLVTVSS
VL: DIQMTQSPSSLSASVGDRVTITCRASSSVSSTYLHWYQQKPGKAPKLWIYTTSTLASGVPSRFSGSGSGTSYTLTISSLQPEDFATYYCQQFSESTWTFGQGTKLEIKR
notes: as for B1
On to B6, for which, in the test with CD47 on HL60 cells, the “rate of phagocytosis, antibody 1 µg/mL” value was determined as 47.6%. The “rate of phagocytosis, antibody 10 µg/mL” value in the test with CD47 on HL60 cells worked out at 60.9%. Besides, the EC50 amounted to 0.0563 µg/mL in test [1] and 1.18 µg/mL in test [6]. The values for the dissociation constant (Kd) in test [2] and in test [3] were 0.592 nM and 2.47 nM, respectively. Moreover, the values for the MFI in test [4] and in test [5] were 7580 MFI and 53000 MFI, respectively. Besides, the IC50 in test [7] was 1.77 µg/mL.

B7: hz3F10-2.2 (antibody, human IgG4 S228P, kappa, V domains shown)
VH: QVQLVQSGAEVKKPGSSVKVSCKASGYTFSRYWIEWVRQAPGQGLEWMGEFIPGSDTTNYAQKFQGRVTITAEISTNTAYMELSSLRSEDTAVYYCARGGLRRMDYWGQGTLVTVSS
VL: DIQMTQSPSSLSASVGDRVTITCRASSSVSSTYLHWYQQKPGKAPKLLIYTTSTLASGVPSRFSGSGSGTDFTLTISSLQPEDFATYYCQQFSESTWTFGQGTKLEIKR
notes: as for B1
As to B7, the “rate of phagocytosis, antibody 1 µg/mL” value in the test with CD47 on HL60 cells is 44.2%. Moreover, the “rate of phagocytosis, antibody 10 µg/mL” value with CD47 on HL60 cells was found to be 34.7%. Besides, the EC50 in test [1] worked out at 0.106 µg/mL; in test [6], 1.12 µg/mL. For the same molecule, the Kd in test [2] was 0.779 nM; in test [3], 1.14 nM. Moreover, the MFI in test [4] came to 5610 MFI; in test [5], 56100 MFI. This molecule gave an IC50 in test [7] of 1.73 µg/mL.

B8: hz3F10-2.1 (antibody, human IgG4 S228P, kappa, V domains shown)
VH: QVQLVQSGAEVKKPGSSVKVSCKASGYTFSRYWIEWVRQAPGQGLEWMGEFIPGSDTTNYAQKFQGRVTITADISTSTAYMELSSLRSEDTAVYYCARGGLRRMDYWGQGTLVTVSS
VL: DIQMTQSPSSLSASVGDRVTITCRASSSVSSTYLHWYQQKPGKAPKLLIYTTSTLASGVPSRFSGSGSGTDFTLTISSLQPEDFATYYCQQFSESTWTFGQGTKLEIKR
notes: as for B1
With B8, the “rate of phagocytosis, antibody 1 µg/mL” value in the test with CD47 on HL60 cells turned out to be 47.2%. Besides, the “rate of phagocytosis, antibody 10 µg/mL” value in the test with CD47 on HL60 cells is 55.2%. Also, the values for the EC50 in test [1] and in test [6] were 0.0809 µg/mL and 1.07 µg/mL, respectively. For the same molecule, the figures for the Kd in test [2] and in test [3] were 0.836 nM and 1.17 nM, respectively. Besides, the MFI in test [4] turned out to be 8450 MFI; in test [5] it was 53200 MFI. Also, the IC50 in test [7] was found to be 1.61 µg/mL.

B9: hz14A9-2.3 (antibody, human IgG4 S228P, kappa, V domains shown)
VH: QVQLVQSGAEVKKPGASVKVSCKVSGFNIEDDYIEWVRQAPGQGLEWMGRIDPANDKTKYAQKFQGRVTMTGDTSTNTVYMELSSLRSEDTAVYYCARPGLRRYYSMDYWGQGTLVTVSS
VL: DIQMTQSPSSLSASVGDRVTITCKASENVVSYVSWYQQKPGKAPKLLIYGASNRYTGVPSRFIGSGSSTDFTLTISSLQPEDFATYYCGQSYSYPLTFGQGTKLEIKR
notes: humanized 14A9, full-length heavy and light chains
B9: the “rate of phagocytosis, antibody 1 µg/mL” value with CD47 on HL60 cells was 71.5%. Also, the “rate of phagocytosis, antibody 10 µg/mL” value in the test with CD47 on HL60 cells is 74.9%. Moreover, the figures for the EC50 in test [1] and in test [6] were 0.157 µg/mL and 0.499 µg/mL, respectively. Besides, the values for the Kd in test [2] and in test [3] were 0.204 nM and 3.07 nM, respectively. For the same molecule, the MFI in test [4] was determined as 2510 MFI; in test [5] it was 11000 MFI. The IC50 in test [7] amounted to 0.703 µg/mL.
